Measurements: paper PMC9555795, “Divergent kinase WNG1 is regulated by phosphorylation of an atypical activation sub-domain” (Biochemical Journal, 2022)

Target: the molecule itself
Experiment: SAXS; protein diluted from a 305 uM stock in 20 mM HEPES pH 7.5, 100 mM NaCl; DAMMIN envelope, SASREF P2 tetramer model compared with the crystal hexamer

B1: BPK1 (residues 61-377) (domain or fragment)
chain: SVYRIPLADMTFWSWMSYLKELPDIDESRNPILKRLLSGSFLRRDGSTTVNVRVPARELVRLLSLTPEQQREGVSAKVRLINLLDPKYSVYEPYLYREILPKRSPLLLPSLGEYRGAFLTYIFHPLSKGLVGDMLETGRSHPDVQVLAANMVAALKSLHNLGLLHRSIELNSFSVLPDGTVVLGGLDTAAPIGTETRLWVGFFGQETAPEIDRNFLADLALTQGRHTVKSDVYSLGVAFRNLVQLLGNGNIGPEDRGAVRQDHLELLDKLSQKMIEEEPGNRPTIEEIMKDPLFEGLNFEDIEEGKARPFRYKQNRL
notes: BPK1, pseudokinase of the WNG family, Toxoplasma gondii, residues 61-377; Cloned in pET28a with the SUMO tag; Purified on Ni-NTA as for WNG1, so a His tag probably went off with the SUMO tag; The species is stated for the WNG family in general, not for BPK1 by name; also called WNG family pseudokinase; source: Rosetta 2 (DE3) cells, purified (Ni-NTA, ULP1 digestion, anion exchange, SEC)
For B1, the “stoichiometry N” value was 4.
